This is an account of results in paper PMC4749145 (Biochemistry, 2015).

The target of series [1] is T1, arylalkylamine N-acetyltransferase like 7 (AANATL7) (Drosophila melanogaster, UniProt Q9W4Y1). Kind of series: intrinsic protein fluorescence quenching. The format is binding.
The target in series [2] is arylalkylamine N-acetyltransferase like 7 (AANATL7) (Drosophila melanogaster, UniProt Q9W4Y1, R138A). Kind of series: intrinsic protein fluorescence quenching. The series is classed as binding.
In series [3] the target is T1, arylalkylamine N-acetyltransferase like 7 (AANATL7). Kind of series: dead-end inhibition kinetics. The series is classed as biochemical.
Substrate in the series “purified protein”: CC(=O)SCCNC(=O)CCNC(=O)[C@H](O)C(C)(C)COP(=O)(O)OP(=O)(O)OC[C@H]1O[C@@H](n2cnc3c(N)ncnc32)[C@H](O)[C@@H]1OP(=O)(O)O
The series can be described thus: purified protein. The note with it: binds first in ordered sequential mechanism; pH 8.0.

Substrate in series [4]: NCCc1c[nH]c2ccc(OCc3ccccc3)cc12
Kind of series: steady-state kinetics, Km,app. The format is biochemical, Drosophila melanogaster. The note with it: acetyl-CoA; pH 8.0.

Substrate in series [5]: NCCc1ccc(O)cc1
The series can be described thus: steady-state kinetics, Km,app. The note with it: acetyl-CoA; pH 8.0. The format is biochemical, Drosophila melanogaster.

Substrate in series [6]: NCCc1c[nH]c2ccccc12
The series can be described thus: steady-state kinetics, Km,app. The series is classed as biochemical, Drosophila melanogaster. The note with it: acetyl-CoA; pH 8.0.

Substrate in series [7]: CCCC(=O)SCCNC(=O)CCNC(=O)[C@H](O)C(C)(C)COP(=O)(O)OP(=O)(O)OC[C@H]1O[C@@H](n2cnc3c(N)ncnc32)[C@H](O)[C@@H]1OP(=O)(O)O
The series can be described thus: steady-state kinetics, Km,app. The format is biochemical, Drosophila melanogaster. The note with it: pH 8.0.

Turning to `CC(C)(COP(=O)(O)OP(=O)(O)OC[C@H]1O[C@@H](n2cnc3c(N)ncnc32)[C@H](O)[C@@H]1OP(=O)(O)O)[C@@H](O)C(=O)NCCC(=O)NCCS` [coenzyme A], the Kd in series [1] was 530 ± 110 µM; in series [2], 1100 ± 200 µM.

`OCCc1ccc(O)cc1` [tyrosol]: affinity in series [3] was put at a Ki of 430 ± 20 µM.

As for `CCCCCCCC/C=C\CCCCCCCC(=O)SCCNC(=O)CCNC(=O)[C@H](O)C(C)(C)COP(=O)(O)OP(=O)(O)OC[C@H]1O[C@@H](n2cnc3c(N)ncnc32)[C@H](O)[C@@H]1OP(=O)(O)O` [oleoyl-CoA], the Ki in series [3] is 0.2 ± 0.01 µM.

B1: arylalkylamine N-acetyltransferase like 7 (AANATL7) (Drosophila melanogaster) (protein)
chain: MEYKMIAPEHSEQVMEHLRRNFFADEPLNKAAGLCQNGSSCPALEAHCAEAIQHRMSVMAVDAKEKDTLKIVGVVLNGILKPGDTAKALSKLDCNDDADFRKIFDLLHRHNLKHNLFEHFDVDCMFDVRILSVDSCYRGQGIANELVKRSVAVAKKNGFRLLKADATGIFSQKIFRSHGFEVFSEQPYSKYTDENGKVILPVEAPHIKLQQLYKAICADDQDEKKQSL
For B1, the Michaelis constant (Km) in the series “purified protein” came out at 29 ± 2 µM; in series [4] it was 9 ± 1 µM; in series [5], 42 ± 2 µM; in series [6], 26 ± 2 µM; in series [7], 6 ± 1 µM. The kcat in “purified protein” was 32 s⁻¹; in series [4], 5.7 ± 0.1 s⁻¹; in series [6] it was 16 ± 0.3 s⁻¹; in series [7], 0.66 ± 0.02 s⁻¹. For the same molecule, the kcat/Km in the series “purified protein” came to 1.1e+06 M⁻¹ s⁻¹; in series [4], 630000 ± 40000 M⁻¹ s⁻¹; in series [6] it was 600000 ± 40000 M⁻¹ s⁻¹; in series [7], 110000 ± 20000 M⁻¹ s⁻¹.

Usually Kd stands for a measure of binding affinity in units of concentration. The low end stands for higher affinity, the high end for lower affinity. What is called Ki is a dissociation constant, usually derived from enzyme kinetics or from competition with a known ligand. A low value points to tighter binding. Broadly, the Km is the concentration of substrate that gives half-maximal velocity. The term kcat denotes the maximal rate divided by the concentration of active sites. One may read the kcat/Km as the turnover number divided by the Michaelis constant.
